Measured values from article PMC9474881.

Molecular target: PsgIBP_L, larger (28 kDa) ice-binding protein isoform from Psychromyces glacialis (Psychromyces glacialis)
Test: SEC; analytical Superose12 column, 20 mM Tris-HCl pH 8.0 + 500 mM NaCl, 0.8 ml/min, 4 °C; 0.5 mL of 1 mg/ml protein loaded; molecular weight from a calibration line with five reference proteins

stoichiometry N: 2
Substance: PsgIBP_L, larger (28 kDa) ice-binding protein isoform from Psychromyces glacialis (natural protein)
